Molecular target: T1, HA-PDE3B (human) phosphorylated by co-expressed Flag-TBK1 (human, UniProt Q13370 1-1112, phosphorylated by co-expressed TBK1; serines 22, 299, 318, 381, 463, 467 and 503 found phosphorylated by LC-MS/MS (HA-PDE3B from Cos-1 cells))
T1 construct: Phosphodiesterase 3B (PDE3B), human cDNA (from Dr Morris Birnbaum); The phosphorylation sites were mapped in Cos-1 cells; also called phosphorylated PDE3B; the wild-type protein; source: HEK293T, transfected together with Flag-TBK1, in lysate; immunoprecipitated for the overlay
T1 sequence (Q13370 whole entry): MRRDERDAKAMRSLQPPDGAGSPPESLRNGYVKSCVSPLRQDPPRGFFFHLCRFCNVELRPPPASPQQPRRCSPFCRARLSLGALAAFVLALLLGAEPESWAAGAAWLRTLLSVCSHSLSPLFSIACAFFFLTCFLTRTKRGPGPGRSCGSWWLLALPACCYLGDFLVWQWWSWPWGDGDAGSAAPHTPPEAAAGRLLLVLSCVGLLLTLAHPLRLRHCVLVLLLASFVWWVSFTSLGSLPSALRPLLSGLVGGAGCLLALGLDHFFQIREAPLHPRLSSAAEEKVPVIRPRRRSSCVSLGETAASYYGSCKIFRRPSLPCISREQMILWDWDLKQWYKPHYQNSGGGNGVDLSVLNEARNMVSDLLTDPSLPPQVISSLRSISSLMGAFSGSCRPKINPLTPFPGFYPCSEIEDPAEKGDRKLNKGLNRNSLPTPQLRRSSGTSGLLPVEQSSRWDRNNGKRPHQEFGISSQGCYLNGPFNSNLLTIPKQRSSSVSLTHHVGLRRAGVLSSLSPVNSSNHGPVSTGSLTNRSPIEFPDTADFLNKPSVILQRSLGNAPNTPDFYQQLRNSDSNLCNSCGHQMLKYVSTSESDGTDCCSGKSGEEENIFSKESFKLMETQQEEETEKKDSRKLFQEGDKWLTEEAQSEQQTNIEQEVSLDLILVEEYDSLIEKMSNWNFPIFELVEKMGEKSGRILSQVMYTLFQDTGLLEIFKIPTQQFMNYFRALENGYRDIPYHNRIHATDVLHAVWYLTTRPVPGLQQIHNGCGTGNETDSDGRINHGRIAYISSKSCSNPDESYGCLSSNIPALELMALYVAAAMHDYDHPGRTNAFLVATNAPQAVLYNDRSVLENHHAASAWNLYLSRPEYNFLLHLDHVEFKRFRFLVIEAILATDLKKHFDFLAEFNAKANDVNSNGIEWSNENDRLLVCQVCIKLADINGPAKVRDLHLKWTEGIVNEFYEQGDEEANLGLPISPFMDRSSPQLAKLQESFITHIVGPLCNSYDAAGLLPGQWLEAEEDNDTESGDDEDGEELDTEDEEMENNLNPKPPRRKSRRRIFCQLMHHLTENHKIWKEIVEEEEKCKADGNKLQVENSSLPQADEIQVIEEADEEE
Assay: pull-down; GST or GST-14-3-3β on glutathione beads incubated 1.5 hr at 4°C with cleared lysates of HEK293T cells co-expressing HA-PDE3B and Flag-TBK1 or K38A; PD buffer 15 mM Tris pH 7.5, 150 mM NaCl, 0.5% NP-40, 1 mM DTT
Settings: one partner purified

B1: GST-14-3-3β fusion protein (natural protein, human, UniProt P31946 1-246, looked up)
chain: MTMDKSELVQKAKLAEQAERYDDMAAAMKAVTEQGHELSNEERNLLSVAYKNVVGARRSSWRVISSIEQKTERNEKKQQMGKEYREKIEAELQDICNDVLELLDKYLIPNATQPESKVFYLKMKGDYFRYLSEVASGDNKQTTVSNSQQAYQEAFEISKKEMQPTHPIRLGLALNFSVFYYEILNSPEKACSLAKTAFDEAIAELDTLNEESYKDSTLIMQLLRDNLTLWTSENQGDEGDAGEGEN
modifications: DIG-labelled (DIG-NHS) in the overlay assay only
notes: 14-3-3β, human cDNA (from Dr Ken Inoki) subcloned into pGEX-4T-1; source: eluted with glutathione for the overlay
**Q.** Does B1 bind?
**A.** binds

From article PMC3869376, “Inflammation produces catecholamine resistance in obesity via activation of PDE3B by the protein kinases IKKε and TBK1” (eLife, 2013)
